Data: PMC10104517

B1: dsDNA (dsDNA)
DNA 1: TTGACGAGGAAGTGTCTGTT
DNA 2: AACAGACACTTCCTCGTCAA
B2: High-GC ssRNA (ssRNA)
RNA: GCUUUGCAGCCGCGGCUCGGUUUAG
B3: ssRNA (ssRNA)
RNA: GCUUUGAUUUCGUGCAUCUAUGGAG
B4: dsRNA (dsRNA)
RNA 1: GCUUUGAUUUCGUGCAUCUAUGGAG
RNA 2: CUCCAUAGAUGCACGAAAUCAAAGC
B5: ssDNA (ssDNA)
DNA: TTGACGAGGAAGTGTCTGTT

Assays:
pI73R [1] = target: T1, pI73R (African swine fever virus (ASFV-GZ, …, UniProt A0A2X0RU36 1-72)); assay: BLI
pI73R [2] = target: T1, pI73R; assay: EMSA

| Binder | Kd (pI73R [1]) [nM] | binding result (pI73R [2]) |
| --- | --- | --- |
| B1 | 100 | – |
| B2 | – | binds |
| B3 | 37.5 | – |
| B4 | 70 | – |
| B5 | 113 | – |
